Experimental data as given in patent US8298545B2, “Anti-autoimmune antibodies for treatment of pemphigus” (The Trustees of the University of Pennsylvania, priority 2007, dated 2012).

System: primary human epidermal keratinocytes
Experiment: Keratinocyte dissociation (dispase) assay
Format: cell-based
Details: FIG. 5M-5O
Method: The keratinocyte dissociation assay was performed as previously described (Payne et al., 2005), using either PV scFv at 5 μg/mL or PV sera at dilutions of 1:5 to 1:7.5 in 500 μL total volume defined keratinocyte-serum free media (Gibco/Invitrogen). For antibodies that only recognize Dsg3, 1 μg/mL exfoliative toxin A (ETA) was added to wells for the last two hours. For antisera depletion assays, 200 μL of PV sera flowthrough (representing a volume of 100 μL, sera, combined with the first 1-volume fraction of the PBS wash) were incubated with cells in a total volume of 500 μL, with or without ETA treatment. Dissociation assays used the total eluate from the antisera columns, concentrated to a volume of 100 μl (representing a starting volume of 250 μL sera).
The question of whether the in vitro inhibition of Dsg binding by ELISA translated into a functional block of antibody pathogenicity was investigated. It was previously shown that neonatal mouse injection is suboptimal for evaluation of pathogenicity of PV mAbs, due to differences in the specificity of mAbs for human versus mouse Dsg substrates. Therefore, the inhibition of mAb pathogenicity was evaluated by a dispase assay using cultured primary human keratinocytes. […]

B1: Exfoliative toxin A: exfoliative toxin A, inactivates Dsg1 (protein, UniProt P09331 39-280, looked up)
Exfoliative toxin A: EVSAEEIKKHEEKWNKYYGVNAFNLPKELFSKVDEKDRQKYPYNTIGNVFVKGQTSATGVLIGKNTVLTNRHIAKFANGDPSKVSFRPSINTDDNGNTETPYGEYEVKEILQEPFGAGVDLALIRLKPDQNGVSLGDKISPAKIGTSNDLKDGDKLELIGYPFDHKVNQMHRSEIELTTLSRGLRYYGFTVPGNSGSGIFNSNGELVGIHSSKVSHLDREHQINYGVGIGNYVKRIINEKNE
  pathogenicity in the keratinocyte dissociation (dispase) assay: do not demonstrate significant pathogenicity
